Measured values published in patent publication US20190361034A1.

Assays:
[1] = biological target: MHC class II molecules on MHC class II-expressing Raji cells (human); assay: cell-based or functional assay
[2] = biological target: MHC class II molecules on MHC class II-expressing Raji cells (human); assay: BLI; immobilised sample, Raji cells in solution; FIG. 23
[3] = biological target: MHC class II molecules on MHC class II-expressing Raji cells (human); assay: BLI; immobilised sample, Raji cells in solution; FIG. 24

With “IMP321 Oxidation, 0.1% H2O2 at 37° C. (1 D = 1 day) (Fc fusion)” as the substance, how does the Bioactivity (CCL4 release) [1] read?
Its Bioactivity (CCL4 release) is 21%.

For “IMP321 Oxidation, 1% H2O2 at 37° C. (1 D = 1 day) (Fc fusion)”, which Bioactivity (CCL4 release) [1] is on record?
Its Bioactivity (CCL4 release) is 10%.

How did the Bioactivity (CCL4 release) [1] turn out when “IMP321, Acid pH 3.0 at RT (1 D = 1 day) (Fc fusion)” was run?
Its Bioactivity (CCL4 release) is 7%.

With “IMP321, Acid pH 3.1 at RT (1 D = 1 day) (Fc fusion)” as the substance, how does the Bioactivity (CCL4 release) [1] read?
Its Bioactivity (CCL4 release) is 15%.

“IMP321, Acid pH 3.6 at RT (1 D = 1 day) (Fc fusion)” was tested. Which Bioactivity (CCL4 release) [1] did it give?
Its Bioactivity (CCL4 release) is 29%.

For “IMP321, Alkali pH 9.2 at 37° C. (1 D = 1 day) (Fc fusion)”, which Bioactivity (CCL4 release) [1] is on record?
Its Bioactivity (CCL4 release) is 17%.

Which Bioactivity (CCL4 release) [1] does the source give for IMP321, Light, 5 D = 5 days (Fc fusion) here?
Its Bioactivity (CCL4 release) is 87%.

And the Bioactivity (binding) [2]?
The Bioactivity (binding) was 74%.

What does the source list for “IMP321, Light, 10 D = 10 days (Fc fusion)”?
Bioactivity (CCL4 release) [1]: 73%; Bioactivity (binding) [3]: 75%
